In PMC11082194, “A common polymorphism in the Intelectin-1 gene influences mucus plugging in severe asthma” (Nature Communications, 2024):

Legend:
[1] = target: purified human airway mucins; test: ELISA; purified mucins coated on NUNC Maxisorp plate overnight at 4 °C, 20 μg/mL, carbonate-bicarbonate buffer pH 9.6; FLAG-ITLN-1 10 μg/mL for 2 hours in binding buffer B (TBS, 3 mM CaCl3, 1% BSA, 0.05% Tween-20, 50 mM EDTA); anti-FLAG HRP, absorbance 450 nm; also with galactose 100 mM, heparin 150 μg/mL or dextran sulfate 150 μg/mL
[2] = target: T1, FLAG-tagged recombinant ITLN-1 (human, UniProt Q8WWA0 19-298); test: ELISA; C-terminal recombinant peptide coated on NUNC Maxisorp plate overnight at 4 °C, 20 μg/mL, carbonate-bicarbonate buffer pH 9.6; FLAG-ITLN-1 10 μg/mL for 2 hours in binding buffer A (TBS, 3 mM CaCl3, 1% BSA, 0.05% Tween-20); anti-FLAG HRP, absorbance 450 nm; also with heparin 150 μg/mL; details: both partners purified
T1 construct: intelectin-1 (ITLN-1), human, recombinant; also called intelectin-1; recombinant human ITLN-1 protein; source: bought: Sigma, SRP8047

Molecule | percent decrease of binding with dextran sulfate (150 μg/mL) [1] [%] | percent decrease of binding with heparin (150 μg/mL) [1] [%] | binding result [2]
FLAG-tagged recombinant ITLN-1 (from UniProt Q8WWA0 19-298) (natural protein) | 74 | 51.9 | –
MUC5AC C-terminal recombinant peptide (AA5568-AA5654) (domain or fragment, human, UniProt P98088 5568-5654, looked up, MUC5AC mucin, human, C-terminal recombinant peptide, residues 5568-5654; also called C-terminal MUC5AC; C-terminal peptide of MUC5AC; source: bought: Mybiosource, #MBS2009104) YSLEGNTVEHRCQCCQELRTSLRNVTLHCTDGSSRAFSYTEVEECGCMGRRCPAPGDTQHSEEAEPEPSQEAESGSWERGVPVSPMH | – | – | binds
